Target: the molecule itself
Experiment: SEC; purified MBP-ZP-N-6his on Sephacryl S-300 HR (FPLC) and Bio-Sil SEC-250-5 (HPLC) columns, ~300 kDa Mr cut-off; buffer F (10 mM Na-HEPES pH 8.0, 100 mM NaCl, 1 mM maltose, 1 mM NaN3); also with 10 mM DTT, and after pre-incubation with 10 mM EDTA

B1: MBP-ZP-N-6his fusion protein (PLAC1-homology region, ZP-N, of the ZP domain of mouse ZP3) (domain or fragment, UniProt P10761 42-143, looked up)
chain: VKVECLEAELVVTVSRDLFGTGKLVQPGDLTLGSEGCQPRVSVDTDVVRFNAQLHECSSRVQMTKDALVYSTFLLHDPRPVSGLSILRTNRVEVPIECRYPR
modifications: intramolecular disulfides Cys 46-Cys 139 and Cys 78-Cys 98 (ZP3 numbering)
notes: mouse ZP3 (zona pellucida sperm receptor), aa 42-143, the 102-amino acid ZP-N fragment; The assay buffer contained 1 mM maltose; also called recombinant ZP-N; ZP-N fragment; source: E. coli Origami B (DE3) (trxB gor), co-expressing ΔSSdsbC and TrxA(G33P, P34Y); purified (Ni2+ HiTrap Chelating HP, amylose resin, Mono Q); not shown: His6 (LEH6), C-terminal, kept
binding result: binds

Source: paper PMC1479692, “The PLAC1-homology region of the ZP domain is sufficient for protein polymerisation” (BMC Biochemistry, 2006)
